We go through one molecule from PMC9405023, “NRF2 Regulates Cystathionine Gamma-Lyase Expression and Activity in Primary Airway Epithelial Cells Infected with Respiratory Syncytial Virus”.

The target of the data set is T1, recombinant NRF2 (rNRF2) (UniProt Q16236 1-605).
T1 sequence: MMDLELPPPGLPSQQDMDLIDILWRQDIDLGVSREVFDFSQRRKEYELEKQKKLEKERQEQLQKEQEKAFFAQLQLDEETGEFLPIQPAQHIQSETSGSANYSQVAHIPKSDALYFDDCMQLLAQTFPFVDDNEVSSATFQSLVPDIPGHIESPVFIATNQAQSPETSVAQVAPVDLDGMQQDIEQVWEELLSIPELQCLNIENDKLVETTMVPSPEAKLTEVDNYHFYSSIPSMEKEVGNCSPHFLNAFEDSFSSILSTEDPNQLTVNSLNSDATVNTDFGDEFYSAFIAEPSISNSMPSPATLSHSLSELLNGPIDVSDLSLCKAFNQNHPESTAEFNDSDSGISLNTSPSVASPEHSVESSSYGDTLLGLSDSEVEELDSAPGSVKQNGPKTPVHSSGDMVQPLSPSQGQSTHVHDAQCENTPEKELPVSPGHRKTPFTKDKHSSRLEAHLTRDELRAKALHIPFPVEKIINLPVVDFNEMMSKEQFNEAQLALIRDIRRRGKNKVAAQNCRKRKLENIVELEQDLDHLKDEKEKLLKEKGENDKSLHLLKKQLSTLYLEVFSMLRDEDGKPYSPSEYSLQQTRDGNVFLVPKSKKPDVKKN
As to the kind of experiment: EMSA; C1 and C2 complexes; 10 mM Tris-HCl pH 8.0, 50 mM KCl, 50 mM NaCl, 1 mM MgCl2, 1 mM EDTA, 5 mM DTT, 2.5% glycerol, 0.3 ug poly dI-dC, 15 fmol probe, 6-8 ug nuclear extract, 10 uL, 15 min, room temperature. The following applies: protein: recombinant; label: 32P (probe); blunt.

B1: -156/-120 CSE wild type (WT) (dsDNA)
DNA 1: CGGTCGCGGTGACGTTTCAGGCAACGCCTCTGCTGT
DNA 2: ACAGCAGAGGCGTTGCCTGAAACGTCACCGCGACCG
With B1, the binding result is given as “binds”.
